Results reported in US6150511 (Fox Chase Cancer Center).

Target: LexA repressor (UniProt P0A7C2 P0A7C2:1-202)
Assay: operator region protected from integration by wild type IN; 5 mM MgCl2, 37 C
Conditions: chain copies: 2 (stated)
Experimental: Assay for integration into pBR322 targets containing lexA operators. Integration of the model viral DNA duplex into a heterologous target was measured using a PCR-based assay similar to that described by Pryciak et al., EMBO J. 11: 291–303 (1992). The target DNAs, pBR322 derivatives, contain the lexA operator region. To measure integration into a specific region, a "target" PCR primer was selected, which was ca. 250 bp from the lexA operator region. The "viral" primer was identical to the 16nt DNA strand to be joined to the target DNA. The length of the PCR product corresponds to the distance from the target primer site to the integration site. Integration assays contained approximately 0.2 pmoles of PstI linerarized plasmid target DNA, 35 pmoles of IN or IN-lexA fusion protein and 0.1 pmol of viral DNA ends (model substrate). The reaction mixture contained 20 mM Tris-HCl and 5 mM MgCl_2. The viral DNA substrate was a 18 mer/16 mer duplex with a recessed end. This corresponds to a processed viral DNA end, as described previously (Katzman et al., 1989, supra). […] Recovery of target DNA was monitored by agarose gel electrophoresis. […] Products were analyzed on 7% acrylamide-urea sequencing gels. Fragment sizes were determined using a ØX174HaeIII digest and a 10 bp ladder (Bethesda Research Labs).

Sequence of LexA repressor (P0A7C2 whole entry, one chain of several): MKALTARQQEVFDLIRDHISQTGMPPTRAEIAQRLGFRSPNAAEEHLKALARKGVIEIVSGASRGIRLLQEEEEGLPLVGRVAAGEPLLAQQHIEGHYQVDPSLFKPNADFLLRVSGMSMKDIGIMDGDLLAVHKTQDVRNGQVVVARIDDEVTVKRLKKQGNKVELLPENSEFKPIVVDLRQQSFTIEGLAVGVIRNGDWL

B1: tandem lexA operator segment (in pBR711-2) (dsDNA)
DNA 1: GGGGTCGACATTACTGTATATATATACAGCATAACTGTATATATATACAGTATAGGATCCGGG
DNA 2: CCCGGATCCTATACTGTATATATATACAGTTATGCTGTATATATATACAGTAATGTCGACCCC
- binding result: binds
